Substitutions are numbered along the chain they refer to. Numbers in names are those of the source.
How the values were obtained:
[1] = target: T1, human FcγRIIIa 176V (Sino Biological, His-tagged) (human, UniProt P08637 17-208); experiment: Biacore single cycle, His-tagged receptor captured on anti-His CM5 chip, antibody analyte; steady state
T1 construct: not shown: His tag

[2] = target: T2, human FcγRIIa 167H (Sino Biological, His-tagged) (human, UniProt P12318 34-218, limits assumed); experiment: as above
T2 construct: not shown: His tag
T2 sequence (looked up): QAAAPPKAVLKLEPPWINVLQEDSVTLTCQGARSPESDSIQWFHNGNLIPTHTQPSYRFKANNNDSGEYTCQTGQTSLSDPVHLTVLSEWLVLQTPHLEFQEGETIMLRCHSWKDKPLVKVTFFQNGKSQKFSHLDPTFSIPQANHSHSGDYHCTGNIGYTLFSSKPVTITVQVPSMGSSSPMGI

[3] = target: T3, human FcγRIIIa 176F (Sino Biological, His-tagged) (human, UniProt P08637 17-208); experiment: as above
T3 construct: not shown: His tag

[4] = target: T4, human FcγRIIa 167R (Sino Biological, His-tagged) (human, UniProt P12318 34-218, limits assumed); experiment: as above
T4 construct: not shown: His tag
T4 sequence (looked up): T2 sequence (looked up) with H134R

[5] = target: T5, human FcγRIIb (Sino Biological, His-tagged) (human, UniProt P31994 43-217, limits assumed); experiment: as above
T5 construct: not shown: His tag
T5 sequence (looked up): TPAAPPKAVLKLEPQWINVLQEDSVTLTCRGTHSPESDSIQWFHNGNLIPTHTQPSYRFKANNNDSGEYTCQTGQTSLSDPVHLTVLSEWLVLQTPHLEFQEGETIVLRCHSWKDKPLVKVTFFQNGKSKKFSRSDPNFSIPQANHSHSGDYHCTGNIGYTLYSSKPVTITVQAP

[6] = target: T6, human FcγRIIIb (Sino Biological, His-tagged) (human, UniProt O75015 17-200, limits assumed); experiment: as above
T6 construct: not shown: His tag

[7] = target: T7, human FcγRI (Sino Biological, His-tagged) (human, UniProt P12314 16-288, limits assumed); experiment: Biacore single cycle, His-tagged receptor captured on anti-His CM5 chip, antibody analyte; 1:1 kinetics
T7 construct: Bought product; also called FcgRI; not shown: His tag

[8] = target: T8, prostate-specific membrane antigen (PSMA) (R&D Systems) (UniProt Q04609 44-750); experiment: Biacore multi-cycle kinetics, antibody captured on Protein G chip, PSMA analyte 1.5625-25 nM
T8 construct: Soluble analyte in the Biacore assay

Measured: binding result

T8 sequence (Q04609 44-750 limits assumed): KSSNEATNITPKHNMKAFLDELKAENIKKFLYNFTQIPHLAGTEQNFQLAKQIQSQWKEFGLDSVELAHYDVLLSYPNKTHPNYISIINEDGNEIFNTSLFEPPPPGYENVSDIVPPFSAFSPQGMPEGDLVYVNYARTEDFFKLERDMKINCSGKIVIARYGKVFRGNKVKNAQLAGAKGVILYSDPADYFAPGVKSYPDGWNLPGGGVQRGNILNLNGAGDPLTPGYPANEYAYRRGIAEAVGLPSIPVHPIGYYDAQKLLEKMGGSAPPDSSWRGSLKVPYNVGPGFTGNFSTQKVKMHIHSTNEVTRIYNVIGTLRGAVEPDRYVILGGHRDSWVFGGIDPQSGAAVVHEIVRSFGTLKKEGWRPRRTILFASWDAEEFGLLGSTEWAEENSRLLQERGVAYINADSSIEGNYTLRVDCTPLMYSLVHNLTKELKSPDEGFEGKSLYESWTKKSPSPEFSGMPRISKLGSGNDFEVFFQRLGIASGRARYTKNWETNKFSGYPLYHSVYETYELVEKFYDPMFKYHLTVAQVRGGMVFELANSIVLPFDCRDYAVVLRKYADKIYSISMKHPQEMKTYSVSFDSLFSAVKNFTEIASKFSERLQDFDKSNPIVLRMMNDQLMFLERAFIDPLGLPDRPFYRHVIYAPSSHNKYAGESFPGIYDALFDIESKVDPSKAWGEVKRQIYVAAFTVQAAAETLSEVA
T6 sequence (O75015 17-200 limits assumed): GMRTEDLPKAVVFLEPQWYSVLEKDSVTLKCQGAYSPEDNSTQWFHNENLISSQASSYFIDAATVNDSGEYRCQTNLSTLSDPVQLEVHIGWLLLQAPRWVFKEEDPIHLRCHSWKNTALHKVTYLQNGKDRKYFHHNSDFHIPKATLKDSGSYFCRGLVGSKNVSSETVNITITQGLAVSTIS
T7 sequence (P12314 16-288 limits assumed): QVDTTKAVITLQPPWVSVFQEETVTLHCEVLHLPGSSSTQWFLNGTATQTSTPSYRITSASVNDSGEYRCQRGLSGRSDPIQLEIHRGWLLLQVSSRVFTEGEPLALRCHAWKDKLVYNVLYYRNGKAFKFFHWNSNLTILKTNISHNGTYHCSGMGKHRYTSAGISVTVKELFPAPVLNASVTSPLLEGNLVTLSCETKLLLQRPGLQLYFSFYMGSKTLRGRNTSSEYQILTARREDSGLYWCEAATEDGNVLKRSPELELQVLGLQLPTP
T3 sequence (P08637 17-208 limits assumed): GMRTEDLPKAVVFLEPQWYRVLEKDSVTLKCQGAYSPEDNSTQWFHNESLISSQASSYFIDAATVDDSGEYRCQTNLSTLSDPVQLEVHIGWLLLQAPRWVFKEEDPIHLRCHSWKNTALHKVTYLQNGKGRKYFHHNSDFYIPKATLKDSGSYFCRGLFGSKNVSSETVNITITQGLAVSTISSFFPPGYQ
T1 sequence (P08637 17-208 F176V limits assumed): as the sequence (P08637 17-208 limits assumed) above, with F160V counted along it

B1: ANT4044 IgG1 (H310A, H435Q) (antibody)
heavy: not shown
light: DIQMTQSPSTLSASVGDRVTITCKASQDVGTAVDWYQQKPGQAPKLLIYWASTRHTGVPDRFSGSGSGTDFTLTISRLQPEDFAVYYCQQYNSYPLTFGQGTKVDIKRTVAAPSVFIFPPSDEQLKSGTASVVCLLNNFYPREAKVQWKVDNALQSGNSQESVTEQDSKDSTYSLSSTLTLSKADYEKHKVYACEVTHQGLSSPVTKSFNRGEC
notes: also called ANT4044-IgG1-2M; ANT4044-FcRn
not listed: [8]
binds: all other assays above

B2: ANT4044-A2 IgG1 (H310A, H435Q) (antibody)
heavy: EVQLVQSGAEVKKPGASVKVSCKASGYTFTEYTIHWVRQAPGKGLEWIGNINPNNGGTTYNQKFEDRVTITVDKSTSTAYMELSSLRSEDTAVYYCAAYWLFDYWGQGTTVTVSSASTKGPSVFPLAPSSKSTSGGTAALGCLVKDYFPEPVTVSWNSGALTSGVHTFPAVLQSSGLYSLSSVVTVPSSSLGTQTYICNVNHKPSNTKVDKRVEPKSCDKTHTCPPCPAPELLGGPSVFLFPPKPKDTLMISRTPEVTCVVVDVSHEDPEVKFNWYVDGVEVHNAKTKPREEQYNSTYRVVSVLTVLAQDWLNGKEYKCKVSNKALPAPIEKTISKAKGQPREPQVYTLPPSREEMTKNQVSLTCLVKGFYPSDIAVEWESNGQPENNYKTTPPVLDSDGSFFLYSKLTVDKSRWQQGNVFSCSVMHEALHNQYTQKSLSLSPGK
light: B1 light
notes: also called ANT4044-A2 RADmAb IgG1
binds: all assays above

B3: ANT4044-A2 IgG1 (antibody)
heavy: not shown
light: B1 light
notes: also called ANT4044-A2 expressed as unmodified IgG1
binds: [8]

B4: ANT4044-A2 IgG4 (S228P, L235E, H310A, H435Q) (antibody)
heavy: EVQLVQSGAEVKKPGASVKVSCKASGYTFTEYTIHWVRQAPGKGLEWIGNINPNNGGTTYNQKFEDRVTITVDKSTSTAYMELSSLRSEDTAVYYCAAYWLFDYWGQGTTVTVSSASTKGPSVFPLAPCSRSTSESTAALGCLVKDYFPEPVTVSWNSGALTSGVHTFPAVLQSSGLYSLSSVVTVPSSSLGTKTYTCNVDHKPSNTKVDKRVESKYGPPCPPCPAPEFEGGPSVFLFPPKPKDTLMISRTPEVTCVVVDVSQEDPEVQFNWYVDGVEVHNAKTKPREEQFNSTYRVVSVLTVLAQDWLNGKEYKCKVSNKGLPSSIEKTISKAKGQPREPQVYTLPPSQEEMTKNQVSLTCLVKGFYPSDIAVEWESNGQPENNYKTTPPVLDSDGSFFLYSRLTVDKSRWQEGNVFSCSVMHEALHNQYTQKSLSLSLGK
light: B1 light
notes: also called ANT4044-A2 RADmAb IgG4
binds: [8]

Reference: US20220323619A1 (TELIX INTERNATIONAL, published 2022)
